Key:
[1] = biological target: T1, human EphA4 extracellular region-SEAP-His protein (human, UniProt P54764 20-547); assay: SPR, Ab captured
T1 construct: also called hEphA4-SEAP-His
Procedure: The binding affinity of each anti-EphA4 monoclonal humanized antibody obtained in Example 16 for human EphA4 was determined by surface plasmon resonance (SPR) using Biacore T200 (GE Healthcare). First, for the assay of antibody A, a rat anti-mouse IgG₁ antibody produced with a conventional method by immunizing rat with mouse IgG₁ antibody was immobilized on sensor chip CM5. The immobilization of the rat anti-mouse IgG1 antibody on sensor chip CM5 was performed by the amine coupling method using N-hydroxysuccinimide (NHS) and N-ethyl-N′-(3-dimethylaminopropyl)carbodiimide hydrochloride (EDC). Ethanolamine was used in blocking (the sensor chip and the reagents for immobilization were all manufactured by GE Healthcare). The antibody was diluted with a buffer solution for immobilization (10 mM sodium acetate, pH 4.5) and immobilized on the sensor chip according to the protocol attached to Biacore T200. For the assay of each humanized monoclonal antibody, a protein A chip (GE Healthcare, 29-1383-03) was used. Antibody A or the humanized monoclonal antibody was diluted with a running buffer solution HBS-EP (GE Healthcare), injected onto only flow cell 2 for 120 seconds, and captured (captured amount: approximately 30 to 60 RU). Subsequently, human EphA4 extracellular region-SEAP-His protein serially diluted in the range of 50, 16.7, 5.6, 1.9, and 0.6 nM using HBS-EP was sequentially added from the lower toward higher concentration sides without regeneration operation. Binding reaction curves were sequentially observed at the time of the addition (association phase, for 120 sec) and after the completion of the addition (dissociation phase, for 900 sec). After the completion of each observation, the sensor chip was regenerated by the addition of 3 M MgCl₂ (for 60 sec) or 10 mM Glycine-HCl pH 1.5 (for 30 sec). The obtained binding reaction curves were subjected to fitting analysis with 1:1 binding models using software BIA evaluation attached to the system to calculate the affinity (KD=kd/ka) for human EphA4 (Table 6).

[2] = biological target: T1, human EphA4 extracellular …; assay: competition ELISA, competitor human Ephrin A5-Fc
Procedure: Each anti-EphA4 monoclonal humanized antibody obtained in Example 16 was evaluated for its inhibitory activity against the binding between human EphA4 and its human ligand according to the following steps. Each well of a 96-well plate (Nunc) was coated with an anti-alkaline phosphatase antibody (Thermo Fisher Scientific). After incubation overnight at 4° C., each well was blocked with 1% BlockAce (DS Pharma Biomedical) at room temperature for 1 hour. After washing with 0.05% Tween 20/PBS (Thermo Fisher Scientific) three times, the human EphA4 extracellular region-SEAP-His protein obtained by the method of Example 2 was added (final concentration: 10 nM) to each well and incubated at room temperature for 1 hour. After washing three times, a ligand and each serially diluted humanized antibody of antibody A (0, 0.003, 0.01, 0.03, 0.1, 0.3, 1, 3, 10, 30, 100, 300, 1000, and 3000 nM) were added to each well. The ligand used was biotinylated human Ephrin A5-Fc chimera (R&D Systems, final concentration: 0.7 nM). After incubation at room temperature for 1 hour and subsequent washing three times, horseradish peroxidase-labeled streptavidin (GE Healthcare) was added thereto and incubated at room temperature for 1 hour. After washing three times, a TMBZ (3,3′,5,5′-tetramethylbenzidine, Sigma-Aldrich) solution was added to each well and incubated at room temperature for 2 minutes. An equal amount of a reaction stopping solution (1N H₂SO₄, Wako Pure Chemical Industries) was added to each well. The absorbance at 450 nm was read using a microplate reader (PerkinElmer).

T1 sequence (P54764 20-547): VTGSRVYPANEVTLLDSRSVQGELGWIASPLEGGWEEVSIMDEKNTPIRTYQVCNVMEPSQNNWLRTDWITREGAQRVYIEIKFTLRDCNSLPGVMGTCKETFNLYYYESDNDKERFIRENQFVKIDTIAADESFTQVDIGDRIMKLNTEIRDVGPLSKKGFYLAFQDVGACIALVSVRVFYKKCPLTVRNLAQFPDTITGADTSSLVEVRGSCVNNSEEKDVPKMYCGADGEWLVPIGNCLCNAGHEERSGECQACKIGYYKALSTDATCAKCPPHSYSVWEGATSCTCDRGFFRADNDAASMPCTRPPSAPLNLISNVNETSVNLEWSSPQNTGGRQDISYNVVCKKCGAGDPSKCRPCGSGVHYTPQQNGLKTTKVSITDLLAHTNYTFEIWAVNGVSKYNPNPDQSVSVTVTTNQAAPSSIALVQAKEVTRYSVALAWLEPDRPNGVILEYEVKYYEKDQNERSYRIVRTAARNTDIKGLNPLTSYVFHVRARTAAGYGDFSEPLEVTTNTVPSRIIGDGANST

B1: humanized antibody No. 158 (antibody, human IgG2)
heavy: QVQLVQSGSELKKPGASVKVSCKASGYTFTDYSMHWVRQAPGQGLKWMGWINTETGEPTYAQGFTGRFVFSLDTSVSTAYLQISSLKAEDTAVYYCARIPLYYYGSRYWYFDVWGQGTTVTVSSASTKGPSVFPLAPSSRSTSESTAALGCLVKDYFPEPVTVSWNSGALTSGVHTFPAVLQSSGLYSLSSVVTVPSSNFGTQTYTCNVDHKPSNTKVDKTVERKSCVECPPCPAPPAAAPSVFLFPPKPKDTLMISRTPEVTCVVVDVSHEDPEVQFNWYVDGVEVHNAKTKPREEQFNSTFRVVSVLTVVHQDWLNGKEYKCKVSNKGLPAPIEKTISKTKGQPREPQVYTLPPSREEMTKNQVSLTCLVKGFYPSDIAVEWESNGQPENNYKTTPPMLDSDGSFFLYSKLTVDKSRWQQGNVFSCSVMHEALHNHYTQKSLSLSPG
light: DIQMTQSPSSLSASVGDRVTITCRASENIYRNLAWYQQKPGKAPQLLLYAATNLADGVPSRFSGSGSGTDYTLTISSLQPEDFATYYCQHFWGTPWTFGQGTKVEIKRTVAAPSVFIFPPSDEQLKSGTASVVCLLNNFYPREAKVQWKVDNALQSGNSQESVTEQDSKDSTYSLSSTLTLSKADYEKHKVYACEVTHQGLSSPVTKSFNRGEC
notes: human Ig kappa; also called L1-6/HA2
[1]
  Kd: 1.9 nM
  koff: 0.00061 s⁻¹
  kon: 310000 M⁻¹ s⁻¹
[2]
  IC50: 2.8 nM

B2: humanized antibody No. 134 (antibody, human IgG2)
heavy: QVQLVQSGSELKKPGASVKVSCKASGYTFTDYSMHWVRQAPGQGLKWMGWINTETGEPTYAQGFTGRFVFSLDTSVSTAYLQISSLKAEDTAVYYCARIPLYYYGSRYWYFDVWGQGTTVTVSSASTKGPSVFPLAPSSRSTSESTAALGCLVKDYFPEPVTVSWNSGALTSGVHTFPAVLQSSGLYSLSSVVTVPSSNFGTQTYTCNVDHKPSNTKVDKTVERKSCVECPPCPAPPAAAPSVFLFPPKPKDTLMISRTPEVTCVVVDVSHEDPEVQFNWYVDGVEVHNAKTKPREEQFNSTFRVVSVLTVVHQDWLNGKEYKCKVSNKGLPAPIEKTISKTKGQPREPQVYTLPPSREEMTKNQVSLTCLVKGFYPSDIAVEWESNGQPENNYKTTPPMLDSDGSFFLYSKLTVDKSRWQQGNVFSCSVMHEALHNHYTQKSLSLSPG
light: EIVMTQSPATLSVSPGERATLSCRASENIYRNLAWYQQKPGQSPRLLIYAATNLADGIPARFSGSGSGTEYTLTISSLQSEDFAVYYCQHFWGTPWTFGQGTKVEIKRTVAAPSVFIFPPSDEQLKSGTASVVCLLNNFYPREAKVQWKVDNALQSGNSQESVTEQDSKDSTYSLSSTLTLSKADYEKHKVYACEVTHQGLSSPVTKSFNRGEC
notes: human Ig kappa; also called L2-4/HA2
[1]
  Kd: 1.2 nM
  koff: 0.00032 s⁻¹
  kon: 280000 M⁻¹ s⁻¹
[2]
  IC50: 3 nM

B3: humanized antibody No. 132 (antibody, human IgG2)
heavy: QIQLVQSGSELKKPGASVKVSCKASGYTFTDYSMHWVRQAPGQGLKWMGWINTETGEPTYAQGFTGRFVFSLDTSVSTAYLQISSLKAEDTAVYYCARIPLYYYGSRYWYFDVWGQGTTVTVSSASTKGPSVFPLAPSSRSTSESTAALGCLVKDYFPEPVTVSWNSGALTSGVHTFPAVLQSSGLYSLSSVVTVPSSNFGTQTYTCNVDHKPSNTKVDKTVERKSCVECPPCPAPPAAAPSVFLFPPKPKDTLMISRTPEVTCVVVDVSHEDPEVQFNWYVDGVEVHNAKTKPREEQFNSTFRVVSVLTVVHQDWLNGKEYKCKVSNKGLPAPIEKTISKTKGQPREPQVYTLPPSREEMTKNQVSLTCLVKGFYPSDIAVEWESNGQPENNYKTTPPMLDSDGSFFLYSKLTVDKSRWQQGNVFSCSVMHEALHNHYTQKSLSLSPG
light: EIVMTQSPATLSVSPGERATLSCRASENIYRNLAWYQQKPGQSPRLLIYAATNLADGIPARFSGSGSGTEYTLTISSLQSEDFAVYYCQHFWGTPWTFGQGTKVEIKRTVAAPSVFIFPPSDEQLKSGTASVVCLLNNFYPREAKVQWKVDNALQSGNSQESVTEQDSKDSTYSLSSTLTLSKADYEKHKVYACEVTHQGLSSPVTKSFNRGEC
notes: human Ig kappa; also called L2-4/HA4
[1]
  Kd: 1.2 nM
  koff: 0.00031 s⁻¹
  kon: 270000 M⁻¹ s⁻¹
[2]
  IC50: 3.1 nM

B4: humanized antibody No. 159 (antibody, human IgG2)
heavy: QVQLVQSGSELKKPGASVKVSCKASGYTFTDYSMHWVRQAPGQGLKWMGWINTETGEPTYADDFKGRFVFSLDTSVSTAYLQISSLKAEDTAVYYCARIPLYYYGSRYWYFDVWGQGTTVTVSSASTKGPSVFPLAPSSRSTSESTAALGCLVKDYFPEPVTVSWNSGALTSGVHTFPAVLQSSGLYSLSSVVTVPSSNFGTQTYTCNVDHKPSNTKVDKTVERKSCVECPPCPAPPAAAPSVFLFPPKPKDTLMISRTPEVTCVVVDVSHEDPEVQFNWYVDGVEVHNAKTKPREEQFNSTFRVVSVLTVVHQDWLNGKEYKCKVSNKGLPAPIEKTISKTKGQPREPQVYTLPPSREEMTKNQVSLTCLVKGFYPSDIAVEWESNGQPENNYKTTPPMLDSDGSFFLYSKLTVDKSRWQQGNVFSCSVMHEALHNHYTQKSLSLSPG
light: DIQMTQSPSSLSASVGDRVTITCRASENIYRNLAWYQQKPGKAPQLLLYAATNLADGVPSRFSGSGSGTDYTLTISSLQPEDFATYYCQHFWGTPWTFGQGTKVEIKRTVAAPSVFIFPPSDEQLKSGTASVVCLLNNFYPREAKVQWKVDNALQSGNSQESVTEQDSKDSTYSLSSTLTLSKADYEKHKVYACEVTHQGLSSPVTKSFNRGEC
notes: human Ig kappa; also called L1-6/HK2
[1]
  Kd: 2 nM
  koff: 0.00061 s⁻¹
  kon: 310000 M⁻¹ s⁻¹
[2]
  IC50: 2.6 nM

B5: humanized antibody No. 160 (antibody, human IgG2)
heavy: QIQLVQSGSELKKPGASVKVSCKASGYTFTDYSMHWVRQAPGQGLKWMGWINTETGEPTYADDFKGRFVFSLDTSVSTAYLQISSLKAEDTAVYYCARIPLYYYGSRYWYFDVWGQGTTVTVSSASTKGPSVFPLAPSSRSTSESTAALGCLVKDYFPEPVTVSWNSGALTSGVHTFPAVLQSSGLYSLSSVVTVPSSNFGTQTYTCNVDHKPSNTKVDKTVERKSCVECPPCPAPPAAAPSVFLFPPKPKDTLMISRTPEVTCVVVDVSHEDPEVQFNWYVDGVEVHNAKTKPREEQFNSTFRVVSVLTVVHQDWLNGKEYKCKVSNKGLPAPIEKTISKTKGQPREPQVYTLPPSREEMTKNQVSLTCLVKGFYPSDIAVEWESNGQPENNYKTTPPMLDSDGSFFLYSKLTVDKSRWQQGNVFSCSVMHEALHNHYTQKSLSLSPG
light: DIQMTQSPSSLSASVGDRVTITCRASENIYRNLAWYQQKPGKAPQLLLYAATNLADGVPSRFSGSGSGTDYTLTISSLQPEDFATYYCQHFWGTPWTFGQGTKVEIKRTVAAPSVFIFPPSDEQLKSGTASVVCLLNNFYPREAKVQWKVDNALQSGNSQESVTEQDSKDSTYSLSSTLTLSKADYEKHKVYACEVTHQGLSSPVTKSFNRGEC
notes: human Ig kappa; also called L1-6/HK4
[1]
  Kd: 1.9 nM
  koff: 0.00061 s⁻¹
  kon: 320000 M⁻¹ s⁻¹
[2]
  IC50: 2.2 nM

B6: humanized antibody No. 133 (antibody, human IgG2)
heavy: QVQLVQSGSELKKPGASVKVSCKASGYTFTDYSMHWVRQAPGQGLEWMGWINTETGEPTYAQGFTGRFVFSLDTSVSTAYLQISSLKAEDTAVYYCARIPLYYYGSRYWYFDVWGQGTTVTVSSASTKGPSVFPLAPSSRSTSESTAALGCLVKDYFPEPVTVSWNSGALTSGVHTFPAVLQSSGLYSLSSVVTVPSSNFGTQTYTCNVDHKPSNTKVDKTVERKSCVECPPCPAPPAAAPSVFLFPPKPKDTLMISRTPEVTCVVVDVSHEDPEVQFNWYVDGVEVHNAKTKPREEQFNSTFRVVSVLTVVHQDWLNGKEYKCKVSNKGLPAPIEKTISKTKGQPREPQVYTLPPSREEMTKNQVSLTCLVKGFYPSDIAVEWESNGQPENNYKTTPPMLDSDGSFFLYSKLTVDKSRWQQGNVFSCSVMHEALHNHYTQKSLSLSPG
light: EIVMTQSPATLSVSPGERATLSCRASENIYRNLAWYQQKPGQSPRLLIYAATNLADGIPARFSGSGSGTEYTLTISSLQSEDFAVYYCQHFWGTPWTFGQGTKVEIKRTVAAPSVFIFPPSDEQLKSGTASVVCLLNNFYPREAKVQWKVDNALQSGNSQESVTEQDSKDSTYSLSSTLTLSKADYEKHKVYACEVTHQGLSSPVTKSFNRGEC
notes: human Ig kappa; also called L2-4/HA1
[1]
  Kd: 1.1 nM
  koff: 0.00032 s⁻¹
  kon: 300000 M⁻¹ s⁻¹
[2]
  IC50: 3 nM
